From publication PMC5300761, “Characterizing the Coding Region Determinant-Binding Protein (CRD-BP)-Microphthalmia-associated Transcription Factor (MITF) mRNA interaction”

B1: FL-CD44 RNA (ssRNA)
RNA: AAAUUAGGGCCCAAUUAAUAAUCAGCAAGAAUUUGAUCG
B2: MHO-7_FL (ssDNA)
DNA: ATTCAGTTCACAGATACTGCAC
B3: MHO-1_FL (ssDNA)
DNA: TAAAAATCTCAAATCAAGTTTC

Assays:
CRD-BP WT [1] = target: T1, CRD-BP WT (mouse, UniProt O88477 1-577); assay: fluorescence polarization; 10 nM RNA, 0-1000 nM protein; EMSA as in refs 21,22 (buffer not given; competitor preincubation 35 C); FP: binding buffer stock 10 mM Tris-HCl pH 7.4, 2.5 mM EDTA, 5% glycerol, 0.002% Triton X-100, 37 C 30 min; settings: protein: recombinant; (pET28b(+), Ni-NTA); label: 3' 6-FAM
CRD-BP WT [2] = target: T1, CRD-BP WT; assay: fluorescence polarization; 10 nM oligo, 0-1000 nM protein; EMSA as in refs 21,22 (buffer not given; competitor preincubation 35 C); FP: binding buffer stock 10 mM Tris-HCl pH 7.4, 2.5 mM EDTA, 5% glycerol, 0.002% Triton X-100, 37 C 30 min; settings: protein: recombinant; (pET28b(+), Ni-NTA); label: 3' 6-FAM

T1 sequence (O88477 whole entry): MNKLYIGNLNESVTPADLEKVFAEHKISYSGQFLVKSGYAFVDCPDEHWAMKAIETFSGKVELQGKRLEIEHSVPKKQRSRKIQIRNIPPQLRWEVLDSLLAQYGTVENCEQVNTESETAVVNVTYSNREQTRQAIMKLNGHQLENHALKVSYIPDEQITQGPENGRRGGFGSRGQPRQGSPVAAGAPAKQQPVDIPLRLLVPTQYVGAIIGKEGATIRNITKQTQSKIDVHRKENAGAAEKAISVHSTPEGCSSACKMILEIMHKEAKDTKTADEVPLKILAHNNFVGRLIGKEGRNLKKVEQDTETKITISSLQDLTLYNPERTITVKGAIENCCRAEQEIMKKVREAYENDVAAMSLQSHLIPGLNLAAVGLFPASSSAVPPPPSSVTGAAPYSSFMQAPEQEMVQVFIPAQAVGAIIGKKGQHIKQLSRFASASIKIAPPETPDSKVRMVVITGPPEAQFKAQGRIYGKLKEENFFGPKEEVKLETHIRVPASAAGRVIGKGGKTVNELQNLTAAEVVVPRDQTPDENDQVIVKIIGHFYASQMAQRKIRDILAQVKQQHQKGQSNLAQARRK

| Binder | binding result (CRD-BP WT [1]) | binding result (CRD-BP WT [2]) |
| --- | --- | --- |
| B1 | binds |  |
| B2 |  | no binding |
| B3 |  | no binding |
